According to PMC3285605:

Key:
[1] = target: soluble form of vesicular stomatitis virus (VSV) glycoprotein G ectodomain (Gth, aa residues 1–422) (vesicular stomatitis virus (Mudd-Summer strain, Indiana serotype)); assay: AUC; sedimentation velocity, pH 6.7, Gth at 1.6 mg/ml, 45,000 rpm, 15°C
[2] = target: soluble form of vesicular stomatitis virus (VSV) glycoprotein G ectodomain (Gth, aa residues 1–422) (vesicular stomatitis virus (Mudd-Summer strain, Indiana serotype)); assay: AUC
[3] = target: soluble form of vesicular stomatitis virus (VSV) glycoprotein G ectodomain (Gth, aa residues 1–422) (vesicular stomatitis virus (Mudd-Summer strain, Indiana serotype)); assay: AUC; sedimentation velocity, pH 6.7, Gth at 0.4 mg/ml, 45,000 rpm, 15°C

Substance: soluble form of vesicular stomatitis virus (VSV) glycoprotein G ectodomain (Gth, aa residues 1–422) (domain or fragment)
- fractional concentration of the 10.0 S species at 1.6 mg/ml, pH 6.7 [1]: 40%
- fractional concentration of the 21.0 S species at 1.6 mg/ml, pH 6.7 [1]: 24%
- fraction of the species of about 320 kDa at pH 6.0 [2]: 30%
- fraction of the species of about 1,600 kDa at pH 6.0 [2]: 70%
- fractional concentration of the 10.0 S species at 0.4 mg/ml, pH 5.7 [2]: 71%
- fractional concentration of the 10.0 S species at 1.6 mg/ml, pH 5.7 [2]: 55%
- fractional concentration of the 21.0 S species at 0.4 mg/ml, pH 5.7 [2]: 29%
- fractional concentration of the 21.0 S species at 1.6 mg/ml, pH 5.7 [2]: 45%
- fractional concentration of the 21.0 S species at 0.4 mg/ml, pH 6.7 [3]: 13%
